Experimental findings from publication PMC11481871, “Discovery of GuaB inhibitors with efficacy against Acinetobacter baumannii infection” (mBio, 2024) are described below.

Data set [1] concerns the molecule itself. The data set can be described thus: crystal structure; E. coli GuaBΔCBS (28 mg/mL) with 5 mM IMP, vapor diffusion at room temperature, 0.1 M bicine pH 9.0, 20% PEG 6000; crystals soaked with inhibitor; space group I4, one molecule in the asu.
Data set [2] deals with the molecule itself. The data set can be described thus: crystal structure; S. aureus GuaBΔCBS (27 mg/mL) with 5 mM IMP, vapor diffusion at room temperature, 0.1 M bicine pH 9.0, 0.1 M NaCl, 30% PEG550 MME; crystals soaked with inhibitor; space group I4, one molecule in the asu.
Data set [3] deals with the molecule itself. The data set can be described thus: crystal structure; A. baumannii GuaBΔCBS (21 mg/mL) with 5 mM IMP, vapor diffusion at room temperature, 0.1 M HEPES pH 7.5, 20% isopropanol, 10% PEG4000; crystals soaked with inhibitor; space group P21, eight copies in the asu.

B1: E. coli GuaBΔCBS (L2-S488_ΔE90-R217) (enzyme, Escherichia coli, UniProt P0ADG7 2-488, looked up)
chain: LRIAKEALTFDDVLLVPAHSTVLPNTADLSTQLTKTIRLNIPMLSAAMDTVTEARLAIALAQEGGIGFIHKNMSIERQAEEVRRVKKHLRVGAAVGAGAGNEERVDALVAAGVDVLLIDSSHGHSEGVLQRIRETRAKYPDLQIIGGNVATAAGARALAEAGCSAVKVGIGPGSICTTRIVTGVGVPQITAVADAVEALEGTGIPVIADGGIRFSGDIAKAIAAGASAVMVGSMLAGTEESPGEIELYQGRSYKSYRGMGSLGAMSKGSSDRYFQSDNAADKLVPEGIEGRVAYKGRLKEIIHQQMGGLRSCMGLTGCGTIDELRTKAEFVRISGAGIQESHVHDVTITKESPNYRLGS
notes: GuaB (inosine-5'-monophosphate dehydrogenase) of Escherichia coli, residues L2-S488 with the CBS domains (E90-R217) deleted; Crystallised with IMP and soaked with G1, G2 or G8; one molecule in the asymmetric unit, the tetramer arises from the fourfold axis of space group I4; also called E.c; GuaB; source: E. coli BL21 (DE3) Gold, purified (HisTrap FF, Superdex200 size-exclusion; same protocol as …)
On to B1, for which, in data set [1], the “stoichiometry N” value came out at 4.

B2: S. aureus GuaBΔCBS (W2-F488_ΔE92-R219) (enzyme)
chain: WESKFAKESLTFDDVLLIPAQSDILPKDVDLSVQLSDKVKLNIPVISAGMDTVTESKMAIAMARQGGLGVIHKNMGVEEQADEVQKVKRSLLVAAAIGISKDTDIRAQKLVEAGVDVLVIDTAHGHSKGVIDQVKHIKKTYPEITLVAGNVATAEATKDLFEAGADIVKVGIGPGSICTTRVVAGVGVPQITAIYDCATEARKHGKAIIADGGIKFSGDIIKALAAGGHAVMLGSLLAGTEESPGATEIFQGRQYKVYRGMGSLGAMEKGSNDRYFQEDKAPKKFVPEGIEGRTAYKGALQDTIYQLMGGVRAGMGYTGSHDLRELREEAQFTRMGPAGLAESHPHNIQITKESPNYSF
notes: Crystallised with IMP and soaked with G1, G2 or G8; one molecule in the asymmetric unit, the tetramer arises from the fourfold axis of space group I4; also called S.a; GuaB; source: E. coli BL21 (DE3) Gold, purified (HisTrap FF, Superdex200 size-exclusion; same protocol as A. baumannii GuaBΔCBS)
Consider B2, for which the “stoichiometry N” value in data set [2] came out at 4.

B3: A. baumannii GuaB with CBS domain deletion (M1-G488_ΔM93-R201) (enzyme)
chain: MLTIVQEALTFDDVLLLPAYSTVLPKDVSLKTRLTRGIYLNIPLVSAAMDTVTESRMAIAMAQNGGIGILHKNMDIAAQAAEVRRVKKFEAGKAESYPNSCKDDLGRLRVGAAVGTGADTPSRVEALVEAGVDVIVVDTAHGHSAGVIERVRWVKQNFPQVQVIGGNIATGDAALALLDAGADAVKVGIGPGSICTTRIVAGIGMPQISAIDSVASALKDQIPLIADGGIRFSGDMAKAIGAGASTIMVGSLLAGTEEAPGEVEFFQGRYYKAYRGMGSLGAMAGATGSADRYFQDSKAGAEKLVPEGIEGRVPYKGPMGNIVHQMMGGLRSSMGYTGSAVIEDLRQNAKFVKITSAGMSESHVHDVTITKEAPNYRVG
notes: cloned into a modified pET52b vector; Eight copies in the asymmetric unit (octamer of two tetramers); also called A. baumannii GuaBΔCBS; GuaBΔCBS; source: E. coli BL21 (DE3) Gold, purified (HisTrap FF, Superdex200 size-exclusion)
As for B3, the “stoichiometry N” value in data set [3] was 8.

A word on the stoichiometry N: it is the number of molecules, sites or subunits per partner or assembly.
